This note sets out measurements from PMC5385928 (Nature structural & molecular biology, 2016).

In assay [1] the target is DNA damage-binding protein 1 (DDB1), full length human (human, UniProt Q16531 1-1140). Nature of the assay: crystal structure.
In assay [2] the target is Uracil-DNA glycosylase UNG2, catalytic domain (residues 83-304) (human, UniProt P13051-2 83-304). Put plainly: crystal structure.
Chain of Uracil-DNA glycosylase UNG2, catalytic domain (residues 83-304) (P13051 92-313): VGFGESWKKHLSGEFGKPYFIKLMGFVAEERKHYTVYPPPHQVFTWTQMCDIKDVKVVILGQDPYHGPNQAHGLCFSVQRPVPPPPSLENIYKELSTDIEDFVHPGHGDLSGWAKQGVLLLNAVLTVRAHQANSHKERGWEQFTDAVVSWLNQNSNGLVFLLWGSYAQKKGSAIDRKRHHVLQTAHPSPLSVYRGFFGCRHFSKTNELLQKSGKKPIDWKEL

Chain of DNA damage-binding protein 1 (DDB1), full length human (Q16531 whole entry, the tested form may be a part): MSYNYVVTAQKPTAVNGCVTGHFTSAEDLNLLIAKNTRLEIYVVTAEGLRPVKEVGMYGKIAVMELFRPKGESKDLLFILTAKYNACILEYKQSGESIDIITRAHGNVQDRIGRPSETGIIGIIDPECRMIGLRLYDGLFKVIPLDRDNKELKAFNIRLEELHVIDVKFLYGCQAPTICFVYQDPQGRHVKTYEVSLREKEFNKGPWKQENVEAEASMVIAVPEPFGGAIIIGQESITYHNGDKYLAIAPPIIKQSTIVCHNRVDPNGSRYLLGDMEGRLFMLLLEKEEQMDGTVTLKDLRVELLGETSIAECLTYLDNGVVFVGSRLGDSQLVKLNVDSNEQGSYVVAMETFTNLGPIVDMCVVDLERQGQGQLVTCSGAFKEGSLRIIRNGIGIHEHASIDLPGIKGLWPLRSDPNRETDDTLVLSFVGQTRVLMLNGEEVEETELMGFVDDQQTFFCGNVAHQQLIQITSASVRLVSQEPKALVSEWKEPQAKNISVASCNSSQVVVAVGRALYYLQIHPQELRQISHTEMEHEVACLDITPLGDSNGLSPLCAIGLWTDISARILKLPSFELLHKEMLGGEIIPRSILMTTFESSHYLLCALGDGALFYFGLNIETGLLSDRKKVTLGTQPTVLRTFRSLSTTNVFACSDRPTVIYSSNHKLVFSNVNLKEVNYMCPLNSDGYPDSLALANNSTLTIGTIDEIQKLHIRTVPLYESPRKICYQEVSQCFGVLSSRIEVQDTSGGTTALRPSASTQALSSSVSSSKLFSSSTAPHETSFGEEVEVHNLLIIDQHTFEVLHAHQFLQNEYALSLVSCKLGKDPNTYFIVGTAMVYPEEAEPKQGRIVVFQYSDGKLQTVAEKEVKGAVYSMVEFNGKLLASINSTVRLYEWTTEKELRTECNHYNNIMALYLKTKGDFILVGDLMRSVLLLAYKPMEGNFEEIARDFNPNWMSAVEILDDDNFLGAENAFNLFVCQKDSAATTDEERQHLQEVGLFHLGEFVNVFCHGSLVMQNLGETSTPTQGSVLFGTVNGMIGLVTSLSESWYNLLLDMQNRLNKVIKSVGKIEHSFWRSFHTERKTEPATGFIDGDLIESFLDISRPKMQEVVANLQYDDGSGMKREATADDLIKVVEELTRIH

B1: DDB1- and CUL4A-associated factor 1 (DCAF1), C-terminal region including the WD40 domain (residues 1046-1396) (domain or fragment)
chain: not shown
B1: the binding result in assay [1] is recorded as “binds”.

B2: HIV-1 (NL4-3 clone) Vpr with H78C mutation (natural protein, UniProt P12520 1-96, looked up)
chain: MEQAPEDQGPQREPYNEWTLELLEELKSEAVRHFPRIWLHNLGQHIYETYGDTWAGVEAIIRILQQLLFIHFRIGCRCSRIGVTRQRRARNGASRS
Consider B2, for which, in assay [2], the binding result was “binds”.
